Experiment: yeast display, Sf9 membrane polyspecificity reagent, FACS + sequencing; frameworks hold sequencing errors
How it was run: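 In a synthetic yeast display library (Saccharomyces cerevisiae BJ5465), nanobody expression was induced with galactose for 36–48 hours. FACS gates were set low and high (top ~1%) using anti-HA fluorescence for expression and streptavidin fluorescence for binding of the Sf9 membrane reagent. Each polyreactivity label is drawn from the gate of origin.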

Sequence	polyreactivity (PSR sort gate)
QVQRVESRGGLVQAGGSLRLSCAASGSTFAVYALGWYRQAPGKERELVAAISQSGGSTNYADSVKGRFTISRDNAKNTVYLQMNSLKPEDTAVYYCNVDVSRSWAQPYTYDYWGQGTQVTVSS	low polyreactivity
QVQLGESGGGVVQAGVSLRLSCAASGSTFTLYAMGWYRQAPGKERELVAAINGAGSTYYADSVKGRFTISRDNAKNTVYLQMNSLKPEDTAVYYCAKDLKYGWSDYWGQGTQVTVSS	low polyreactivity
QVQLVESGGGLVQAGGSLRLSCAASGLIFGVNAMGWYRQAPGKERELVAGISGSTGSTYYADSVKGRFTISRDNAKNTLYVQMNSLKPEDSAVYYCAKRSRRRGYRYDYWGQGTQVTVSS	high polyreactivity
QVQLVESGGGLVQAGVSLRLSCAASGFTFGRYAMGWYRQAPGKERELVAAISNSGGSTYYADSVKGRFTISRDNAKNTVYLQMNSLKPEATAVYYCAARDSYWSVYYWGQGTQVTVSS	high polyreactivity
QVQLVESGGGLVQAGGSLRLSCAASGSTFAYYAMGWYRQAPGKEREFVAVINWRGGSTYYADSVKGRFTISRDNAKNTVYLQMNSLKQEDTAVYYCNGRSGGYYYGFDYWGQGTQVTVSS	low polyreactivity
QVQLVESGGGLVQAGGSLRLSCAASGYTFSANADMGWYRQAPGKESELVAAITGSGGITYYADSVKGRFTISRDNAKNTVYLQMNSLKPEDTAVYYCAAAVVDAAFDYWGQGTQVTVSS	low polyreactivity
QVQLVESGGGLVQAGGSLRLSCAASGSTFIPNAMGWYSQAPGKERELVAAISTGGSTNYADSVKGRFTISRDNAKNTVYLQMNSLKPEDTAVYYCNARRGYYNPGRRFYYWGQGTQVTVSS	low polyreactivity
QVQLVESGGGLVQAGGSLRLSCAASGSSLNLNAMGWYRQAPGKERELVAAIRWGGGSTYYADSVKGRFTISRDNAKNTDYLQMNSLKPEDTAVYYCAKAYHLGLGYRFDYWGQGTQVTVSS	high polyreactivity
QVQLVESGGGLVQAGGSLRLSCAASGRIFGLYAMGWYRQAPGKERELVAAISWSGGRTYYADSVKGRFTISRDNAKNNVYLQMNSLKPEDTAVYYCAARSYYRSQYGFDYWGQGTQVTVSS	high polyreactivity
QVQLQEIGGGLVQAGGSLRLSCAATGSIFVSVTMGWYRQAPGKERELVASIGRGSTTNHADSVKGRFTISRDNAKNIVYLLMNSLKPEDTAVYYCAALESYGKYHGYWGQGTQVTVSS	low polyreactivity
QVQLVESGGGLVQAGCSLRLSCAASGFTFYYNAMGWYRQAPGKERDLVAAISISGASTYYADSVKGRFTISRDNAKNTVYLQMNSLKPEDTAVFYCAKRTKGYTYHHEYGYWGQGTQVTVSS	low polyreactivity
QVQLVESGGGLVQAGGSLRLSCAASGSTFVVYAMGWYRQAPGKERELVASISSGDSTTYADSVKGRFTISRDNAKNTVYLQMNSLKPEDTAVYYCNADYAYYLDVYSPYDSWGQGTQVTVSS	low polyreactivity
QVQLVESGGGLVQAGGSLRLSCAASGSTFPRYAMGWYRQAPGKERELVASITSDGGSTYYADSVKGRFTISRDNAKNTVYLQMNSLKPEDTAVYYCNKVPYRGYRRYGYWGQGTQVTVSS	high polyreactivity
QVQLVDSVGGLVQAGGSLRLSCAASGFIFGRNSMGWYIQAPGKERELVAGISSRGGRTYYADSVKGRFTISRDNAKNTVYLQMNSLKPEDTAVYYCAAAGLTDYVRYDYWGQGTQVTVSS	high polyreactivity
QVQHVESVGGLVQAGGRLRLSSAASGSIFSYNAMGWYRQAPVKERQLVARITRGGDGTYYADSVMVRFTISRDNAKNTVYLQMNSLKPEDTAVYYCAGTPYWYHLRVEGGYWGQGTQVTVSS	low polyreactivity
QVQLVESGGGLVQAGGSLRLSCAASGSIFSYNAMGWYRQAHGKERELVAAIRASGGSTYYADSVKGRFTISRDNAKNTVYLQMNSLKPEDTAVYYCAARGYGWGQGTQVTVSS	high polyreactivity
QVQLVESGGGLVQAGGSLRLSCAATGSIIPFYAMGWYRQATGKEREFVAAISRTGGNTYYADSVKGLLTISRDNAKNTVYLQMNSLKPEDTAVYFCATKRKWTYLSFDYWGQGTQVTVSS	low polyreactivity
QVQLVESGGGLVQAGGSLRLSCAASGSTSLKNAMGWYRQAPGKERELVAAINSVGDTYYADSVKGRFTISRDNAKNTVYLQMNSLKPEDTAVYYCAKRVVRYGKRMGYWGQGTQVTVSS	high polyreactivity
QVQLVESGGGLVQAGGSLRLICAASGSTFHTYAMGWYRQAPGKERELVATITWDGGRTYYADSVKGRFTISRDNAKNTVYLQMNSLKPEDPAVYYCAADYWSIEMDYWGQGTQVTVSS	low polyreactivity
QVQLVESGGGLVQAGGSLRLSCAAYGSIFYSYAMGWYRQAPGKERELVASIRIGSSTNYADSVKGRFTISRDNAKNTVYLQMNSLKPEDSAVYYCAARRFYKYYYGSDYWGQGTQVTVSS	high polyreactivity
QVQLVESAGGLVQAGGSLRLSCAASGNTFATYAMGWYRQAPGKERELVAAITWTGGRTRYADSVKVRFTISRDNAKNTVYLPMNSLKPEDTAVYYCAAKRYDTTYDSWGQGTQVTVSS	high polyreactivity
QVQLVESGGGLVQAGGSLRLSCAASGSIFKPYAMGWYRQAPGKERELVAAISYSGGSTYYADSVKGRFTISRDNAKNSVYLQMNSLKPEDTAVYYCAKRSTSRGYDYWGQGTQVTVSS	high polyreactivity

Sequence	polyreactivity (PSR sort gate)
QVQLVESGGGLVQAGGSLRLSCAASGFTLDVNAMGLYRHAPGKERELVATISWGGASRYYADSVKGRFTISRDNAKNTVYLQMNRLKPEDTAVFYCAAQFYYPDDKGGYDYWGQGTQVTVSS	low polyreactivity
QVQLVESGGCLVQAGGSLRLSCAASGFTFRYYAMGWYRQAPGKEREFVAAIRSSGTTTSYADSVKGRFRISRDYAKNTVYLQMNSLKPEDTAVYFCAAGYFGPQQYYYWCQGTQVTVSS	high polyreactivity
QVQLVESGGGLVQAGGSLRLSCAASGSTFPVNAMGWYRQAPGKERELVARIRGSGGSTYYADSVKGRFTISRDNAKNTVYLQMKSLKPEDTAVYYCAARYIGYSSYKYDYWGQGTQVTVSS	high polyreactivity
QVQLVESGGGLVQAGGSLSLSCAASASTFRYYTMGWYRQAPGKERELVAAISWTGGGTYYADSVKGRFTISRDNAKNTVYLQMNSLKPEDTAVYYCAASYYYELFRFDYWGQGTQVTVSS	high polyreactivity
QVQLVESVGGLVQAGGSLRLSCAASGRTFRAYSMGSYRQAPGKETELVAAIRSGTSTNYADSVKGRFTISRDNAKNTVYLQMNSLKPEDTAVYYCAARWWYYIGGRDYWGHGTQVTVSS	high polyreactivity
QVQLVESRGGLVQAGRSLRLSCAASGITFYSYAMGWYRQEPGKERELVAAITLTGGTTYYADSVKGRFTISRDNAKNTVYLQMNSLKPEDTAVYYCAAQYWWWSRFEYDSCGQGTQVTVSS	low polyreactivity
QVQLVESGGGLVQAGGSLRLSCAASGSIFHPYAMGWYRQAPGKEREFVAAITFRGSTYFADSVKGRFTISRDNAKITVYLQMNSLKPEDTAVYYCAARYHIFRRGSRNYDYWGQGTQVTVSS	high polyreactivity
QVQLVESGGGLVQAGGSLRLSCAASGSIFYYNAMGWFRQAGGKERELVAALSWSGGSTYYADSVKGRYTISRDNATNTVSLQMNSLKPEETAVYYCNAVGWYTYFSGSRKYNSWGQGTQVTVSS	low polyreactivity
QVQLVESGGGLVQAGGSLRFICAASGNTLNYYTMGWYRQAPGKERELVAAISSSGGSTYYADSVKGRFTISRDNAKNTVYLQMNSLQPEDTAVYYCNASVINEMNYWGQGTQVTVSS	low polyreactivity
QVQLVESGGGLVQAGGRLRLSCAASGFIIVYYAAMGWYRQAPGKERELVAAISSRDDSTTYADSVKGRFTISRDNAKNTVYLQMNSLKPEDTAVYYCNADLGGFYYVYAYNYWGQGTQVTVSS	low polyreactivity
QVQLVESGGGLVQAGGSLRLSCAASGRTFRNYAMGWYRQAPGKERELVAGITSGGSTNYADSVKGRFTISRDNAKNTVYLQMNSLKPEDTAVYYCNAVRPFYWFWYYGYWGQGTQVTVSS	low polyreactivity
QVQLVESGGGLVQSGGSLRLSCAASGRIFGAYAMGWYRQAPGKDRELVAAITSAGSTHYADSVKGRFTISRDNAKNTVYLQMNSLKPEDTAVYYCAADGIASAYVLFDAYDFLYDYWGQGTQVTVSS	low polyreactivity
QVQLVESGGGLVQVGGSLRLSCAASGITLSYYAMGWYRQAPRKERELVASITVSRTSTYYADSVKGRFTISRDNAKNTVYLQMNSLKPEDTEVYYCNADGDHPYRRNDYWGQGTQVTVSS	low polyreactivity
QGQLVESGGGLVQAGGSLRLSCAASGFIFSSNAMGLYRHAPGKERELVAAISSSGGNTYYADSVKGRFTISRDNAKKTVDLQMNSLKPEDTAVYYCAADLSSAYGHDYWGLGTQVTVSS	low polyreactivity
QVQHVESGGGLLQAGGSLRLSCAASGRIFYGNAMGWYRQATGKERELVAAILWRGGTTYYADSVKGRFTISRDNAMNTVYLLMISLKPEDTSDYNCTADEPYKYYYWGQGTQVTVSS	low polyreactivity
QVQLVESGGGLVQAGGSLRLSCAASGRIFGYYAMGWYRQAPGKERELVAAINWRGGNTNYADSVKGRFTISRDNAKNTVYLQMNSLKPEDTSVYYCNAQVLVRPIQGEYGYWGQGTQVTVSS	low polyreactivity
QVQLVESGGGLVQAGGSLRLSCAASGGTFGSNTMGWYRQAPGKERELVAAITSGVSTNYADSVKGRFTISRDNAKNTVYLQMNSLKPEDTAVYYCAKDLWSEEYETIITSYGFDYWGQGTQVTVSS	low polyreactivity
QVQLVESGGGLVQAGGSLRLSCAASGSIFTWYAMGWYRQAPGKERELVARINVSAGITYYADSVKGRFTISRDNAKNTVYLQMNSLKPEDTAVYYCAATGWRRPKHNYWGQGTQVTVSS	low polyreactivity
QVQLEESGGGLVHAGGSLRLSSAASGYTFKYYALACYRQAPGKERELVAAISARGGSTYYADSVKGRFTISRDNAKNTVYLQMNSVKPEDTAVYFCAARSGYGPYRMDYWGQGTQVTVSS	high polyreactivity
QVQLVESGGGLVQAGGSLRLSCADSGRTFGGYAMGWYRQAPGKQRELVASITWSGGSTYYADSVKGRFTISRDNAKNNVYLQMNSLKPEDTAVYYCGARTYQSRSTRMDYWGQGTQVTVSS	low polyreactivity
QVQLVESGGGLVQAGGSLRLSCAASGRISPNNAMGWYIPAPGKERELVAAITASGGTTYYADSVKGRFTISRDNAKYTVYLQMNSLKPEDSAVYYCAAAVWYRGWYRYDYWGQGTQVTVSS	low polyreactivity

Reference: the nanobody polyreactivity screen of Harvey et al. (2022)
